In patent US20130039916A1 (Merck Sharp & Dohme, published 2013):
Values joined by “and” are separate entries in the source; they are usually repeats but may differ in a detail not shown here. Equal values may be shown once.

T1: "Non-linked" human IL-23 (human p40 coexpressed in 293T cells with human p19:FLAG-tag peptide) (human, UniProt P29460 23-328)
T1 sequence 1: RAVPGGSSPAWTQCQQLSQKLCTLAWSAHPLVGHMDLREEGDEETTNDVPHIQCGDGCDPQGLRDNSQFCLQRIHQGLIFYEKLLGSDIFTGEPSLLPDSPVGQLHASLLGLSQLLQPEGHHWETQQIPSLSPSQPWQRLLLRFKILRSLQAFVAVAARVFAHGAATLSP
T1 sequence 2: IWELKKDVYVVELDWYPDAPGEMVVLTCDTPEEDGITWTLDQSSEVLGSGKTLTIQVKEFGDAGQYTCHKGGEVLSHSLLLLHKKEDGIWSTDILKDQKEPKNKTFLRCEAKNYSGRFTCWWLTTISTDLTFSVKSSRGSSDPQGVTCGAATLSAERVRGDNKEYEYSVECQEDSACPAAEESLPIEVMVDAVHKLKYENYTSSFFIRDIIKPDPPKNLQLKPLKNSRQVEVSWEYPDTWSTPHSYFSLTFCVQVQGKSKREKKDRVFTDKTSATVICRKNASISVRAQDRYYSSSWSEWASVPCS

T2: non-tagged, non-linked native human IL-23p19/p40 coexpressed in SF9 cells (eBioscience CAT No. 34-8239) (human, UniProt P29460 23-328)
T2 sequence 1: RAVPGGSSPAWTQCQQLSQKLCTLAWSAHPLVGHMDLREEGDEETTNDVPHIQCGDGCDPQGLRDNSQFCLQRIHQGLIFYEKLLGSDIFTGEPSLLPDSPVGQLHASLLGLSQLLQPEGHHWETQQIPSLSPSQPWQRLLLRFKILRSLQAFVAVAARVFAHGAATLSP
T2 sequence 2: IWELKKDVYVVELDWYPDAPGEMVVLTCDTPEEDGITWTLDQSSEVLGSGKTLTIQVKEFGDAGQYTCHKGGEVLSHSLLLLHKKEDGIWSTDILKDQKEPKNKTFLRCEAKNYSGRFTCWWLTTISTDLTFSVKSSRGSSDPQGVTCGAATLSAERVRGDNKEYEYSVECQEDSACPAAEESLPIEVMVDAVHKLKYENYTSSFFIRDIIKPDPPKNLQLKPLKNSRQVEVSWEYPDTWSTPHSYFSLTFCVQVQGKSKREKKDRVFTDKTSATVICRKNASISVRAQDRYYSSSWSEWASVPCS

T3: human IL-23 (form not stated) (human, UniProt P29460 23-328)
T3 sequence 1: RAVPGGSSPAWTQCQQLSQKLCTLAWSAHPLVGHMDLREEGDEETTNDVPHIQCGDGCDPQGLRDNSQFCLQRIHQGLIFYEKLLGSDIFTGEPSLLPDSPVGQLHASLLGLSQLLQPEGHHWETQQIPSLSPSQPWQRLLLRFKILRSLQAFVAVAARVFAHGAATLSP
T3 sequence 2: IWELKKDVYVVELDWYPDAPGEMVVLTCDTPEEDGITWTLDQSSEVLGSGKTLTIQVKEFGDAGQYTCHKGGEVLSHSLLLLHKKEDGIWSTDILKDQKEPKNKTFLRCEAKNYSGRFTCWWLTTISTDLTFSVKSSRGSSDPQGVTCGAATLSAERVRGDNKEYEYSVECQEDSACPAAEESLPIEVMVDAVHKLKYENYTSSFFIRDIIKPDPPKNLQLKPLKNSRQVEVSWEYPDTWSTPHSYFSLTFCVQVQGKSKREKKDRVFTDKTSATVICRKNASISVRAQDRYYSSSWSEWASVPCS

T4: "N222Q" human IL-23 (elastikine sequence with Asn222 to Gln in the p40 subunit, expressed in SF9 cells) (human, UniProt P29460 23-328)
T4 chain 1: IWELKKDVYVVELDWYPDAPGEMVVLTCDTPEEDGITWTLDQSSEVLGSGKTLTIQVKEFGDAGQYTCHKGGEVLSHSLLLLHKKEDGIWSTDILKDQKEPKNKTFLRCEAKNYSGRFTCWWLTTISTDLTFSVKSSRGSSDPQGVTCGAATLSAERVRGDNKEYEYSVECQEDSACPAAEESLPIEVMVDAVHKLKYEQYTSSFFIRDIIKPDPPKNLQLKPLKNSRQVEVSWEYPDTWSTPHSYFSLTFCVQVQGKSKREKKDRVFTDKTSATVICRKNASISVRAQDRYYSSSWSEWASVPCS
T4 chain 2: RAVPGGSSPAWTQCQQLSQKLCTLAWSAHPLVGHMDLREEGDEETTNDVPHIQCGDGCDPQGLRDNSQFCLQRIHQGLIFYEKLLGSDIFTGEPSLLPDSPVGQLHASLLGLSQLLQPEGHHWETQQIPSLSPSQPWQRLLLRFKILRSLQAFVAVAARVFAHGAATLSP


Legend:
[1] = biological target: T5, "Elastikine" human IL-23 (single chain FLAG-tag:GLU-tag:human p40:elasti-linker:human p19, expressed in 293T … (human, UniProt P29460 23-328)); experiment: cell-based or functional assay
[2] = biological target: T1, "Non-linked" human IL-23 (human p40 …); experiment: cell-based or functional assay
[3] = biological target: T2, non-tagged, non-linked native human …; experiment: cell-based or functional assay
[4] = biological target: T5, "Elastikine" human IL-23 (single chain …); experiment: KinExA, solution equilibrium
Description: (§1) The equilibrium dissociation constant (Kd) for anti human IL-23 antibodies is determined using the KinExA 3000 instrument. Sapidyne Instruments Inc., Boise Id., USA KinExA uses the principle of the Kinetic Exclusion Assay method based on measuring the concentration of uncomplexed antibody in a mixture of antibody, antigen and antibody-antigen complex. The concentration of free antibody is measured by exposing the mixture to a solid-phase immobilized antigen for a very brief period of time. In practice, this is accomplished by flowing the solution phase antigen-antibody mixture past antigen-coated particles trapped in a flow cell. Data generated by the instrument are analyzed using custom software. Equilibrium constants are calculated using a mathematical theory based on the following assumptions:
(§2) 98 micron PMMA particles (Sapidyne, Cat No. 440198) are coated with biotinylated rhIL-23 according to Sapidyne “Protocol for coating PMMA particles with biotinylated ligands having short or nonexistent linker arms”. To make biotinylated rhIL-23, EZ-link TFP PEO-biotin (Pierce, Cat. No. 21219) is used according to manufacturer's recommendations (Pierce bulletin 0874). Experimental procedures are done according to the KinExA 3000 manual.
(§3) KinExA experiments are performed essentially as described at Example 3 of U.S. Patent Application Publication No. 2007/0048315.

[5] = biological target: T1, "Non-linked" human IL-23 (human p40 …); experiment: KinExA, solution equilibrium
Description: as §1, §2, §3

[6] = biological target: T2, non-tagged, non-linked native human …; experiment: KinExA, solution equilibrium
Description: as §1, §2, §3

[7] = biological target: T6, "Elastikine" human IL-23 (single chain FLAG-tag:GLU-tag:human p40:elasti-linker:human p19, expressed in 293T … (human, UniProt P29460 23-328)); experiment: cell-based or functional assay; remark: listed apart in the source
[8] = biological target: T2, non-tagged, non-linked native human …; experiment: BIAcore SPR, antibody immobilised on CM5 chip, IL-23 in solution
Description: (§4) BIAcore determinations are performed essentially as described at Example 4 of U.S. Patent Application Publication No. 2007/0048315. Briefly, ligands (anti-IL-23 mAbs) are immobilized on a BIAcore CM5 sensor chip using standard amine-coupling procedure. IL-23 (various forms) is diluted in PBS to produce various concentrations. Kinetic constants for the various interactions are determined using BIAevaluation software 3.1. The Kd is determined using the calculated dissociation and association rate constants. In certain experiments, proteins are used at the following concentrations: anti-IL-23 mAb hu7G10 in PBS at 0.33 mg/mL; anti-IL-23 mAb hu6H12 in PBS at 0.2 mg/mL; bac-wt human IL-23 in PBS at 0.30 mg/mL; eBioscience human IL-23 in PBS at 0.10 mg/mL; N222Q human IL-23 in PBS at 0.33 mg/mL.

[9] = biological target: T3, human IL-23 (form not stated); experiment: cell-based or functional assay
[10] = biological target: T6, "Elastikine" human IL-23 (single chain …); experiment: KinExA, solution equilibrium
Description: as §1, §2, §3

[11] = biological target: T4, "N222Q" human IL-23 (elastikine …); experiment: BIAcore SPR, antibody immobilised on CM5 chip, IL-23 in solution
Description: as §4

Row | IC50 (pM), blocking of Ba/F3 cell proliferation [1] | IC50 (pM), blocking of Ba/F3 cell proliferation [2] [pM] | IC50 (pM), blocking of Ba/F3 cell proliferation [3] | Kd [4] | Kd [5] [nM] | Kd [6] [nM] | IC50 (pM), blocking of Ba/F3 cell proliferation [7] [pM] | Kd [8] | fold decrease of IC50 in the Ba/F3 proliferation bioassay against the heavy chain of SEQ ID NO: 129 without R98A [9] [fold] | Kd [10] | Kd [11] [nM] | Binder
1 | 11 pM and 9 pM | 1500 | 1300 pM and 500 pM | 0.054 nM and 0.048 nM | > 1.2 | > 1 | – | – | – | – | – | mouse anti-human IL-23p19 antibody 6H12 (antibody, V domains shown, also called m6H12) VH: EVHLQQSGPELVKPGASVKMSCKASGYTFNRYLIHWVKQKPGQGLEWIGYINPNNDGTNYNEKFKGKATLTSDKSSSTAYMELSSLTSEDSAVYYCAANWDQAYWGQGTLVTVSA VL: DIVMTQSPATLSVTPGDRVSLSCRASQSISDYLHWYQQKSHESPRLLIKYTSQSISGIPSRFSGSGSGSDFTLSINSVEPEDVGVYYCQNGHSFPFTFGSGTKLEIKR
2 | 7 pM and 5 pM | 113 | 31 pM | 0.022 nM | – | 0.055 | – | – | – | – | – | mouse anti-human IL-23p19 antibody 13B5 (antibody, V domains shown, also called m13B5) VH: EVQLQQSGPELVKPGASVKMSCKASGYTFTRYLMHWVKQKPGQGLEWIGYINPYNDGTNYNEKFKGKATLTSDKSSSTAYMELSSLTSEDSAVYYCARNWDVGGYWGQGTTLTVSS VL: DIVMTQSPATLSVTPGDRVSLSCRASQSISDYLHWYQQKSHESPRLLIKYASQSISGIPSRFSGSGSGSDFTLSINSVEPEDVGVYYCQNGHSFPFTFGSGTKLEIKR
3 | 9 pM and 5 pM | 67 | 11 pM | 0.019 nM | 0.034 | 0.62 | – | – | – | – | – | mouse anti-human IL-23p19 antibody 39G2 (antibody, V domains shown, also called m39G2) VH: QVQLQQPGAELVRPGASVKLSCKASGYSFTSSWMNWVKQRPGQGLEWIGMIHPSDSETRTNQKFKDKATLTVDKSSSTAYMQLSSPTSEDSAVYYCARGMITAPTVYWGQGTLVTVSA VL: DIVLTQSPASLAVSLGQRATISCRASKSVSTSAYSYFHWYQQKPGQPPKLLIYLASNLESGVPARFSGSGSGTDFTLNIHPVEEEDAATYYCQHSRELPWTFGGGTKLEITP
4 | 15 pM and 5 pM | 73 | 12 pM | 0.053 nM | – | > 0.7 | – | – | – | – | – | mouse anti-human IL-23p19 antibody 35F12 (antibody, V domains shown, also called m35F12) VH: QVQLQQPGAELMRPGASVRLSCKASGYSFTTSWMNWVKQRPGQGLEWIGMIHPSDSETRLNQNFKDKATLTVDRSSSTAYMQLNSPTSEDSAVYYCARGMITAPSVYWGQGTLVTVSA VL: DIVLTQSPASLAVSLGQRATISCRASKSVSTSAYSYFHWYQQKPGQPPKLLIYLASNLESGVPARFSGSGSGTDFTLNIHPVEEGDAATYYCQHSRELPWTFGGGTKLEITR
5 | – | 10000 | 7800 pM | – | – | – | 29 | 3.2 nM and 9 nM | – | – | – | humanized anti-human IL-23p19 antibody 7G10 (antibody, human IgG1, kappa, V domains shown, Full-length humanized antibody, human IgG1 / kappa; also called hu7G10; hum7G10) VH: QVQLVQSGAEVKKPGASVKVSCKASGYTFTSNVMHWVRQAPGQGLEWMGYINPYNDGTKYNEKFKGRVTMTTDTSTSTAYMELRSLRSDDTAVYYCARNWDVAYWGQGTLVTVSS VL: DIQMTQSPSSLSASVGDRVTITCRASQSISDYLHWYQQKPGKAPKLLIYYASQSISGVPSRFSGSGSGTDFTLTISSLQPEDFATYYCQNGHSFPFTFGQGTKVEIKR
6 | – | – | – | – | – | – | – | – | > 1000 | – | – | humanized antibody 17G8 with R98A substitution in the heavy chain of SEQ ID NO: 129 (antibody, V domains shown) VH: QVQLVQSGAEVKKPGASVKVSCKASGYTFTSYGIKWVRQAPGQGLEWMGEIFPRSGQTIYNEKFKGRVTMTTDTSTSTAYMELRSLRSDDTAVYYCAANWDLDYWGQGTLVTVSS VL: DIQMTQSPSSLSASVGDRVTITCRASQSISDYLHWYQQKPGKAPKLLIYYASQSISGVPSRFSGSGSGTDFTLTISSLQPEDFATYYCQNGHSFPYTFGQGTKVEIKR
7 | – | 4000 | 3200 pM | – | – | – | 27 | 4.1 nM | – | 0.028 nM and 0.036 nM | 0.5 | humanized anti-human IL-23p19 antibody 6H12 (antibody, human IgG1, kappa, V domains shown, Full-length humanized antibody, human IgG1 / kappa; also called hu6H12; hum6H12) VH: QVQLVQSGAEVKKPGASVKVSCKASGYTFNRYLIHWVRQAPGQGLEWMGYINPNNAGTNYNEKFKGRVTMTTDTSTSTAYMELRSLRSDDTAVYYCARNWDQAYWGQGTLVTVSS VL: DIQMTQSPSSLSASVGDRVTITCRASQSISDYLHWYQQKPGKAPKLLIYYTSQSISGVPSRFSGSGSGTDFTLTISSLQPEDFATYYCQNGHSFPFTFGQGTKVEIKR
